# Measurements from patent publication US20130101582A1, “Tiki1 and Tiki2, Wnt Inhibitors” (CHILDREN'S MEDICAL CENTER CORPORATION, priority 2010, published 2013).
# T1: LRP6N-IgG (Homo sapiens, UniProt O75581)
# T1 construct: using the extracellular domain of mouse Fz8 (mFz8CRD-IgG) or LRP6 (LRP6N-IgG)
# T1 sequence (O75581 20-1370 limits assumed): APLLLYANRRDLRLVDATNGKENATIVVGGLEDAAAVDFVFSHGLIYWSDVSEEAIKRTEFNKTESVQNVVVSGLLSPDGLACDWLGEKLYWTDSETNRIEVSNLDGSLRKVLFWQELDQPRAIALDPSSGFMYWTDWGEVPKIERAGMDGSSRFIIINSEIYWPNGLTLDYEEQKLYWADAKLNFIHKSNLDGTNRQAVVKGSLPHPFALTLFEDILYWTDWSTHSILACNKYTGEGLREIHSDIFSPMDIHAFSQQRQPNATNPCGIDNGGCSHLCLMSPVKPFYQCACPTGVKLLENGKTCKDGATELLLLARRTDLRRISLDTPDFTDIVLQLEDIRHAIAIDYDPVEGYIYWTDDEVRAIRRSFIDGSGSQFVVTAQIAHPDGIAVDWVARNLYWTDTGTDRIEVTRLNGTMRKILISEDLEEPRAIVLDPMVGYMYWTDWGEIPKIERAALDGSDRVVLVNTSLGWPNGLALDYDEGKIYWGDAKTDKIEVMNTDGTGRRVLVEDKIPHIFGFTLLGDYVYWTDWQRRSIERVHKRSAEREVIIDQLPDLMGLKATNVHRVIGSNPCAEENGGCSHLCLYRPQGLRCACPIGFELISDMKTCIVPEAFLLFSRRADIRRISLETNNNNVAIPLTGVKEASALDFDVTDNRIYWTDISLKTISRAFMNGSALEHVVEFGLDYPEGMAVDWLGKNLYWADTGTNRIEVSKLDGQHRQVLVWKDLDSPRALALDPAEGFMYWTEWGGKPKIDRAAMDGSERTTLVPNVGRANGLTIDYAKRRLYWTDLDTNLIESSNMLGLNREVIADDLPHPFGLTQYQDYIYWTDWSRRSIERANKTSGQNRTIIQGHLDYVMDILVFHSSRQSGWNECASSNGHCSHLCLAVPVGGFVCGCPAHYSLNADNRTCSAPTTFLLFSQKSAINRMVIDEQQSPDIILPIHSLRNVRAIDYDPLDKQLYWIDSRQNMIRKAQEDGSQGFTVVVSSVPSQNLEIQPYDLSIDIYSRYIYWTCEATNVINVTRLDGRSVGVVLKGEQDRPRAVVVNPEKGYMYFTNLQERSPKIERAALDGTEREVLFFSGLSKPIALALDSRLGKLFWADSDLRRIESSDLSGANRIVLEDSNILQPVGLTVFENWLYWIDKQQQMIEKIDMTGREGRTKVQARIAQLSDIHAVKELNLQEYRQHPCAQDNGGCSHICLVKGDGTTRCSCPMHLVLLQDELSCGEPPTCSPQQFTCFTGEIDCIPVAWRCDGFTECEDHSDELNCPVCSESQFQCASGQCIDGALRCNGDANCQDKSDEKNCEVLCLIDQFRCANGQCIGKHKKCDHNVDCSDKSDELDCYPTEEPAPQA
# B1: Tiki2: Human Tiki2 (XP 371250/LOC388630) (SEQ ID NO:2), expressed in L or HEK293T cells (protein, listed as Homo sapiens)
# chain: MHAALAGPLLAALLATARARPQPPDGGQCRPPGSQRDLNSFLWTIRRDPPAYLFGTIHVPYTRVWDFIPDNSKAAFQASTRVYFELDLTDPYTISALASCQLLPHGENLQDVLPHELYWRLKRHLDYVKLMMPSWMTPAQRGKGLYADYLFNAIAGNWERKRPVWVMLMVNSLTERDVRFRGVPVLDLYLAQQAEKMKKTTGAVEQVEEQCHPLNNGLNFSQVLFALNQTLLQQESVRAGSLQASYTTEDLIKHYNCGDLSAVIFNHDTSQLPNFINTTLPPHEQVTAQEIDSYFRQELIYKRNERMGKRVMALLRENEDKICFFAFGAGHFLGNNTVIDILRQAGLEVDHTPAGQAIHSPAPQSPAPSPEGTSTSPAPVTPAAAVPEAPSVTPTAPPEDEDPALSPHLLLPDSLSQLEEFGRQRKWHKRQSTHQRPRQFNDLWVRIEDSTTASPPPLPLQPTHSSGTAKPPFQLSDQLQQQDPPGPASSSAPTLGLLPAIATTIAVCFLLHSLGPS
# Experiments:
# [1] = test system: beta-catenin stabilization; assay: Beta-catenin stabilization in Wnt3a-expressing L cells, Western blotting; assay type: cell-based, mouse; conditions: Wnt3a-producing L cells stably expressing human Tiki2
# Method: Wnt3a CM rescued Tiki2 inhibition of beta-catenin stabilization in Wnt3a-expressing cells. Indicated cell lines were treated with control or Wnt3a CM for 2 hrs and whole cell lysates (WCL) were subjected for Western blotting. Beta-tubulin was a loading control.
# (§1) As Tiki proteins are related to bacterial proteins of unknown function, it was speculated that Tiki may antagonize Wnt signaling through a novel mechanism, possibly in an enzymatic fashion. Human Tiki2 was stably expressed in L cells or Wnt3a-expressing L cells (human Tiki1 was poorly expressed in L cells). […] In fact Wnt3a CM restored beta-catenin stabilization in Wnt3a-expressing cells that also expressed Tiki2 (FIG. 5A).
# LRP6N-IgG = molecular target: T1, LRP6N-IgG; assay: Binding of Wnt3a CM to LRP6N-IgG, protein G precipitation
# Method: Wnt3a CM was incubated with LRP6N-IgG or mFz8CRD-IgG. The protein complexes were precipitated by protein G agarose and subjected for Western blotting.
# as §1
# Wnt3a [2] = molecular target: T2, Wnt3a (Mus musculus, UniProt P27467); assay: Metabolic labeling (az-15 / 35S) to quantify Wnt3a acylation in HEK293T cells; assay type: cell-based; parameters: expressed in transfected cells; host or cells: HEK293T; conditions: co-expressed with Wnt3a in HEK293T cells; versus GFP control
# T2 sequence (P27467 19-352): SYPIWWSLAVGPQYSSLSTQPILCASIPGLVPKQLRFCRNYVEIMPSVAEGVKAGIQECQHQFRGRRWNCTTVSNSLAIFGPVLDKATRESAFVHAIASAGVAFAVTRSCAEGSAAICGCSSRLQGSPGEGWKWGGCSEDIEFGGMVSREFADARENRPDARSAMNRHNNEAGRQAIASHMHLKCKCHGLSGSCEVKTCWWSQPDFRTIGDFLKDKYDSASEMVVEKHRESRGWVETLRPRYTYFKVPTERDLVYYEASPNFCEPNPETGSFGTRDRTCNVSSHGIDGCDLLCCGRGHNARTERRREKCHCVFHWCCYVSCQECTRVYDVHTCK
# Method: FIG. 6E is a gel showing that Tiki2, but not the control GFP, reduces Wnt3a acylation in HEK293T cells (Top panel). The total amount of Wnt3a is constant (bottom panel).
# Metabolic labeling was performed to quantify Wnt3a acylation. Wnt3a co-expressed with GFP (control) or hTiki2 in HEK293T cells was metabolically labeled with an azido-palmitic acid analog (az-15) and [^35S]-Methionine/Cysteine. Wnt3a secreted in the culture medium was immunoprecipitated and subjected to click chemistry reaction using the Rhodamine-labeled ALK reagent (ALK-Rho), which reacts with az-15 (Charron G et al., JACS 131, 4967, 2009). The fluorescent signal indicates the acylation amount of Wnt3a whereas ^35S signal indicates the total amount of Wnt3a protein (FIG. 6E). […] Thus the maximal reduction of acylation by Tiki2 is expected to be 50% if the deacylation is complete and there are only two acylation sites. The 31% reduction we observed is consistent with the possibility of three acylation sites, although it is also possible that there are only two acylation sites in Wnt3a, and Tiki2 deacylation of one of these two sites was incomplete in our experiment.
# Wnt3a [3] = molecular target: T2, Wnt3a; assay: Acyl-biotinyl exchange (ABE) analysis of Wnt3a produced from Tiki2-expressing cells; assay type: cell-based; parameters: expressed in transfected cells; host or cells: mouse L cells (Wnt3a-expressing); HEK293T; conditions: compared to Wnt3a from control cells
# Description: FIG. 6C is a gel showing the results of Acyl-biotinyl exchange (ABE) analysis of control Wnt3a or Wnt3a produced from Tiki2-expressing cells. Biotinylation of Wnt3a secreted from Tiki2-expressing cells was much reduced compared to that of Wnt3a from control cells.
# Biotinylation of Wnt3a secreted in the presence of Tiki2 was much reduced compared to that of Wnt3a from control cells (FIG. 6C). This reduction of available thioester linkage indicates depalmitoylation of Wnt3a at a cysteine residue, e.g., C77, in the presence of Tiki2
molecule,measurement,setting,value
B1,Beta-catenin stabilization,[1],inhibited beta-catenin stabilization
same,Binding of Wnt3a secreted from Tiki2-expressing cells to LRP6 (LRP6N-IgG),LRP6N-IgG,failed to bind to either Fz or LRP6
same,Reduction of Wnt3a acylation,Wnt3a [2],about 31%
same,Biotinylation of secreted Wnt3a in ABE assay,Wnt3a [3],much reduced
